Experimental data reported in the supplement of paper PMC10126150.
± gives the standard deviation of the averaged measurements.

Tested on: ATP
Assay: switch fluorescence ratio, 500 uM ATP over buffer (Cy3 cluster intensity, sum of 5 cycles each) (fold (ratio)); higher = stronger signal-on switching upon ATP binding; sequences stand for … in TCGTCGGCAGCGTCAGATGTGTATAAGAGACAGTTTTTTTTTTTTTTTTTTTTTTTTT…TC
Settings: aptamer strand: ATP DNA aptamer (quencher-CACCTGGGGGAGTATTGCGGAGGAAGG + anchor), 100 nM annealed; ATP concentration: 500 uM
Outline: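 Cy3-labelled switching-strand clusters on a modified Illumina MiSeq flow-cell were annealed to 100 nM quencher-labelled ATP aptamer and imaged first in selection buffer, then after 15 min with 500 uM ATP at 22 °C. NaOH stripping and re-annealing separated each of five buffer/ATP cycles, and clusters outside 100-1000 RFU were excluded. The fluorescence ratio sums target-cycle Cy3 intensity over buffer-cycle Cy3 intensity per cluster and averages it per switch-domain sequence.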
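Further: ATP exposure 15 min at 22 °C before imaging.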

Sequence	switch fluorescence ratio
AGCAGGACCC	1.23 ± 0.054
TTCGAGTTGT	1.006 ± 0.0025
TATTGCCAGG	1.1 ± 0.036
TATTTTCGGG	1.011 ± 0.0078
TATTTTTCGG	0.984 ± 0.041
CACTAGAGTG	1.021 ± 0.0063
ATAGGTGGCG	1.01 ± 0.038
GGGGTTATCT	1.01 ± 0.026
TCTCTTATGT	0.985 ± 0.033
GAAGGTATTG	0.977 ± 0.013
CAAAGGGCAA	1.11 ± 0.038
AAATGACAGC	1.06 ± 0.037
GAAGGGACGT	1.07 ± 0.026
GCGTCGGGTG	1.019 ± 0.008
TGATCCCGGG	0.93018 ± 0.00028
GAATTGATTT	1.009 ± 0.0065
TGTTTTGCGT	1.01 ± 0.037
GGGGGCGGGT	1 ± 0.044
TGTGGGCAGT	1.02 ± 0.03
GAGCTACCCG	1.04 ± 0.031
GGGATTAATG	1.01 ± 0.015
ACGGGGGTAG	0.989 ± 0.022
TACTAATTGG	0.9961 ± 0.0086

Sequence	switch fluorescence ratio
AAGCGGAGCC	0.966 ± 0.023
TTATAAGACT	1.044 ± 0.0064
TTTAGTTGAA	0.988 ± 0.023
GGTTGGGATC	0.9513 ± 0.0082
AACAACTCCA	1.015 ± 0.0036
CCTTTGGATA	1.13 ± 0.16
TAAGGGGATA	1.06 ± 0.11
ACACGTTTTT	1 ± 0.014
ATTAGGATGT	0.9948 ± 0.0027
TTATTATAGA	0.998 ± 0.021
CTAAGGGGGT	0.9503 ± 0.0032
ATATTCGCGG	1.01 ± 0.015
GAGCCTTTGT	1.002 ± 0.006
AGGTCTAGC	0.995 ± 0.017
TTAAGGCTTA	1.01 ± 0.044
CGGCGATCGG	0.99 ± 0.013
GGGGCAGAGG	0.997 ± 0.043
TCCCCTTTTT	1.04 ± 0.015
TGGGACAGGC	0.965 ± 0.089
TATGGGCCAG	0.996 ± 0.02
TTAGCCGCGG	0.997 ± 0.016
TTGTACGCCC	1.24 ± 0.2
TAGGGAGGCT	0.992 ± 0.038

Sequence	switch fluorescence ratio
ACGCGGACAC	1.22 ± 0.065
ATGTTAGGCT	0.998 ± 0.025
ATCAATGAAC	1.05 ± 0.018
CGCGAGCTTT	1.015 ± 0.0032
AGGATTGGTT	1 ± 0.025
AGTACCGGGT	1.04 ± 0.049
AAATGGGAGC	0.99 ± 0.031
ATTCTTTGGC	1.04 ± 0.097
GTTGGGGCCT	1.03 ± 0.051
ATAAGACGTT	1.01 ± 0.041
ATCATGGCTT	1.03 ± 0.011
TTCGGGGTCC	0.99 ± 0.028
CTTGAATTTC	0.987 ± 0.017
TGCTTGTCTC	1 ± 0.013
TAGGGTTGCA	1 ± 0.057
TAAGTGGGGT	0.979 ± 0.026
GGTTTATATG	1.035 ± 0.0011
GGGTATGCTG	0.9479 ± 0.0067
TGTGCTTGGG	1.04 ± 0.027
GGGTAAGGGT	1.13 ± 0.37
GATACGGTTA	1.03 ± 0.011
TTTAGATCAA	1 ± 0.0019
GGTGCGGGGT	0.983 ± 0.016

Sequence	switch fluorescence ratio
GGGATATGAA	0.992 ± 0.018
CCAGACGGGC	1.07 ± 0.059
AGCTATGCGC	0.963 ± 0.056
CGGTGGGGGT	0.988 ± 0.022
GGGCTGAAGG	1.004 ± 0.01
GAGCGGCGGG	0.996 ± 0.026
TAAGTGCCAA	1.01 ± 0.032
CGTACGAAGG	0.971 ± 0.028
AAAGCACTAG	1.11 ± 0.055
GGATGGGGCT	1.02 ± 0.03
GAAACTTAGG	1.01 ± 0.019
TACCGTACGA	1.5 ± 0.019
AGTATGTGTC	1.01 ± 0.042
GATGAGCGCC	1.03 ± 0.037
TACGTCACCT	1.71 ± 0.048
AAGTCGAAGT	0.98568 ± 0.00082
GTCCGGGGTC	0.972 ± 0.065
TCTATTCTCC	1.52 ± 0.72
GAGTAGTATA	0.992 ± 0.049
GGGTTGATCT	0.993 ± 0.011
TTGGCGCTTG	1.02 ± 0.025
TAGGCTTGAA	1.03 ± 0.028
TTGCTATAGA	1.01 ± 0.017

Sequence	switch fluorescence ratio
CCAGTACTTC	1.11 ± 0.023
TGGAAGGTTA	1.01 ± 0.025
TGGTGTCTAT	1.007 ± 0.0087
GGGTTTACTG	1 ± 0.022
CGGCTAGGGG	1.02 ± 0.037
TAGCTTTTTA	1 ± 0.026
GGGAAAAGGA	1.018 ± 0.0094
GATTTGGTCT	1.04 ± 0.035
AAAGAAAGGT	1.02 ± 0.024
GCAGAGGGTC	0.9998 ± 0.0066
TTTCTGTAAG	1.01 ± 0.036
TTTGTCATTC	1 ± 0.0017
CTGGTATTCT	0.996 ± 0.037
TTGTGTTTAC	1.07 ± 0.11
GTCGATATTT	1.01 ± 0.026
GGGTAGCTTG	0.989 ± 0.03
GGGATTTTGA	0.999 ± 0.017
CTGCTGGGGT	1.04 ± 0.018
TTTTGTTGTG	0.999 ± 0.034
ATGGTGTTGC	0.964 ± 0.028
ATCTATGGTT	0.9669 ± 0.0036
